We go through 1 molecule from patent US20200308281A1 (KITE PHARMA, published 2020).

The target in this experiment is T1, alpha chain of the constant region of the murine T cell receptor (TCR) (murine, UniProt P01849 1-136).
T1 construct: Endogenous protein in mouse spleen tissue; The variable parts and the beta chains are those of the tissue's T cells and are not defined; also called mouse spleen TCR
T1 TCR alpha (looked up): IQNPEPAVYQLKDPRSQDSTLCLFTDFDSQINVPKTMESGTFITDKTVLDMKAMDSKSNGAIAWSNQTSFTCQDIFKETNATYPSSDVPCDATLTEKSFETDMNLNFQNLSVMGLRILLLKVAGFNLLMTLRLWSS
In words: immunohistochemistry on FFPE section of mouse spleen. The procedure:
The candidate antibodies were screened for their utility in immunohistochemistry. Specimens were sectioned at 4 micron thickness, mounted onto positive-charged glass slides, dried, baked, deparaffinized, and rehydrated. Following rehydration, tissue sections were incubated in Envision Peroxidase (Dako) for 5 minutes to quench endogenous peroxidase. Sections underwent heat-induced epitope retrieval using high-pH buffer for 40 minutes in a water bath set to 95° C. followed by a rinse in neutral buffer. Slides were incubated with antibody or negative reagent control diluted in diluent for 30 minutes. Slides were then rinsed twice in buffer for 5 minutes each followed by detection using the Envision+Rabbit HRP Detection Kit (Dako) for 30 minutes. Slides were rinsed twice with buffer for 5 minutes each followed by incubation with DAB (Dako) for 5 minutes. Slides were rinsed with water, counterstained with hematoxylin, blued in ammonia water, dehydrated through graded alcohols, cleared in xylene, and coverslipped. As shown in FIGS. 5A-E, E7 TCR-transduced, Peripheral blood mononuclear cells (PBMCs) transduced with the MAGE A3/A6 TCR, and FFPE section of mouse spleen stain with the exemplary mAb clone 39 (KIP-8) antibody described herein. […] Normal mouse spleen sections stain with KIP-8 further indicating its specificity for the murine alpha constant sequence.

B1: KIP-8 antibody (mAb clone 39; Clone 39-4) (antibody, V domains shown)
VH: QEQLVESGGGLVQPEGSLTLTCTASGFDLGNNWIHWVRHAPGKGLEWIACVSGSSGNIYYATWAKGRFTMSKASSTTVTLRMTSLTAADTATYFCARGWNLWGPGTLVTVSS
VL: AQVLTQTPASVSAAVGGTVTINCQASQSVYSSNLLTWYQKKPGQPPKLLIYEASKLPSGIPSRFSGSGSGTQFTLTISDVQCADAATYYCLGIYDCVLADCQAFGGGTEVVVKG
notes: Rabbit monoclonal antibody; also called clone 39 (KIP-8); Clone 39-4 vh1
On to B1, for which the binding result is “binds”.
